Tests used:
Assay in all cases: FACS on transfected 293T (summary with IRTA-Fc ELISA, FIG. 2A and B)
[1] = target: T1, IRTA4, full-length, on transfected 293T cells (human, UniProt Q96LA5 20-508)
T1 sequence: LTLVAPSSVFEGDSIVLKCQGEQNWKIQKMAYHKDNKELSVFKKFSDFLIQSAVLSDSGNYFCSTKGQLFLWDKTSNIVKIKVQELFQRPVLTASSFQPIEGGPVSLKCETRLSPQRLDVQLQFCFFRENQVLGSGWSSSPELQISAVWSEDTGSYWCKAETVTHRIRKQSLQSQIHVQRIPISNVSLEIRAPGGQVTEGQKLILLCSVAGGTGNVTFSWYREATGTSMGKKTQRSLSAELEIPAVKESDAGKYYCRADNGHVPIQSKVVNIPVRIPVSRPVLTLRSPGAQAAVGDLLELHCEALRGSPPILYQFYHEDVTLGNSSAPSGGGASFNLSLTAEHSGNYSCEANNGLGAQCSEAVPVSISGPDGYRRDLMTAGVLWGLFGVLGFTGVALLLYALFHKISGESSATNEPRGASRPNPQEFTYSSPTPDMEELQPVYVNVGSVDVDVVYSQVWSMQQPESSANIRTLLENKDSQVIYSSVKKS
Procedure: (§1) FIGS. 2A-B are a bar graph and a set of plots showing the cross-reactivity of the anti-IRTA2 MAbs to other IRTA family members. FIG. 2A is a bar graph of the results from an ELISA of anti-IRTA2 MAbs to various Fc-fusion proteins. Each Fc-fusion protein indicated on the top of the column was captured on ELISA plates using secondary antibody (goat anti-human IgG). After washing, 100 ng/50 μl/well of MAbs were added, followed by HRP-labeled goat anti-mouse IgG and TMBZ substrate. The signals in ELISA were normalized for the amounts of each Fc-fusion protein on the plates using HRP-goat anti-human Fc. The controls are MAbs 9E10 (anti-myc tag, IgG1), BerH2 (anti-CD30, IgG1), T408 (anti-CD30, IgG2a), T420 (anti-CD30, IgG2b) and HRP-goat anti-human Fc (1/2400 dilution). […] Two days after transfection, the cells were harvested and incubated with 200 ng/100 μl of each MAb, followed by PE-conjugated goat anti-mouse IgG F(ab′)2. […] In the positive control panels, the MAbs cross-reactive to other IRTAs were used. They are F26 (anti-IRTA1 and anti-IRTA2, IgG2b), F109 (anti-IRTA3, IgG2b), F47 (anti-IRTA4, IgG2a), and F69 (anti-IRTA5, IgG2a). BerH2 (anti-CD30, IgG1) was also used. “+” indicates more than 1.5-fold than that of the control; “++” indicates more than 10-fold mean fluorescence intensity than that of the negative control.

[2] = target: T2, IRTA3, full-length, on transfected 293T cells (human, UniProt Q96P31 18-734)
T2 sequence: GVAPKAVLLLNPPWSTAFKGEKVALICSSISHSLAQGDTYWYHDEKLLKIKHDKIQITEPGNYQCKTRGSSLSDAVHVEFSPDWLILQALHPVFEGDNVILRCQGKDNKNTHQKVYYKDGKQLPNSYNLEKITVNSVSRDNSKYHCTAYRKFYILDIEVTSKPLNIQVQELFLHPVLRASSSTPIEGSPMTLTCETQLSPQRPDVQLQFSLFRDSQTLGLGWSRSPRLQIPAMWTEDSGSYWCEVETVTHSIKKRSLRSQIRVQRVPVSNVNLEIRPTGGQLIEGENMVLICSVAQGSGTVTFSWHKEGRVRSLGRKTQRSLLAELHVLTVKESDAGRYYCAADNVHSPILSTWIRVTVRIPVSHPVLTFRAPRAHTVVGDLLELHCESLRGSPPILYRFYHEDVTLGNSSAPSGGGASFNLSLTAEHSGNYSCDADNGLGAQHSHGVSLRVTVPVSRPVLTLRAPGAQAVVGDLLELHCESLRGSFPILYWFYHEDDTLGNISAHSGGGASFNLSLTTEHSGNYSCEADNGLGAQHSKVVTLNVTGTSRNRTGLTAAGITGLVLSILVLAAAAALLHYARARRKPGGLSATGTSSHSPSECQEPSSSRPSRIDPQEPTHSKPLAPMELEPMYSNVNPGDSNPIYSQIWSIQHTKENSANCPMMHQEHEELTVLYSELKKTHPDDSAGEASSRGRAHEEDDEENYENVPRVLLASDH
Procedure: as §1

[3] = target: T3, IRTA1, full-length, on transfected 293T cells (human, UniProt Q96PJ5 20-515)
T3 sequence: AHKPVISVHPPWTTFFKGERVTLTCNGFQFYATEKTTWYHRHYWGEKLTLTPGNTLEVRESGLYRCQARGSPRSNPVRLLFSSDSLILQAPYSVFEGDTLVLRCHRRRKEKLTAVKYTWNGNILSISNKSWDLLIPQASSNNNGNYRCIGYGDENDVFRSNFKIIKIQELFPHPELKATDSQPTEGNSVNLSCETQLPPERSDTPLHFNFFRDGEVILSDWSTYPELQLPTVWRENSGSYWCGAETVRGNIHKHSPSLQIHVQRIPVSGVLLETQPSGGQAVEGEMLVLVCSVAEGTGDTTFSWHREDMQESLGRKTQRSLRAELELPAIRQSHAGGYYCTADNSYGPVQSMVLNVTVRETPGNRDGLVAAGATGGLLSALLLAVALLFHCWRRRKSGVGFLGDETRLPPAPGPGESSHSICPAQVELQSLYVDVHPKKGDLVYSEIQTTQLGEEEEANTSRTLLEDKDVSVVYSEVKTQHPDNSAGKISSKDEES
Procedure: as §1

[4] = target: T4, IRTA5, full-length, on transfected 293T cells (human, UniProt Q96LA6 17-429)
T4 sequence: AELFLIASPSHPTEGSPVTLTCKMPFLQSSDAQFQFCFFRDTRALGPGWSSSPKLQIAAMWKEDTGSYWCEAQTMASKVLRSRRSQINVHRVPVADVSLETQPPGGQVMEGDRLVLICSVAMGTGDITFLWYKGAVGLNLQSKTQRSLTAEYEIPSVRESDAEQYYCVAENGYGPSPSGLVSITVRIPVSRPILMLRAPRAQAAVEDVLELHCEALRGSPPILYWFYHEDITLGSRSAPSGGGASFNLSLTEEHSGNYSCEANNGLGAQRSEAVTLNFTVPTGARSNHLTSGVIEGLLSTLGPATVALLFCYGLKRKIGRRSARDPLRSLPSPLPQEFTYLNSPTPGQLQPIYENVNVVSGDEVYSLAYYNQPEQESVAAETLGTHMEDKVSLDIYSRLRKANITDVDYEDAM
Procedure: as §1

Measured: binding result

B1: F25 (antibody, IgG2a, V domains shown)
VH: EVQLQQSGPELVKPGTSVKMSCKASGYSFTGYFMNWMMQNHGKSLEWIGRINLYNGDTFYNQKFKDKATLTVDKSSNTVHMEFRSLASEDSAVYYCASSLYYFDYWGQGTTFTVSS
VL: DIVMTQSHKFMSTSVGDRVNITCKASQDVGTNVAWYQQKPGQSPKLLIYWASTRQTGVPDRFTGSGSGTDFTLTISNVQSEDLSDYFCQQYSSYPLTFGAGTKLELKR
notes: mouse hybridoma MAb, IgG2a, kappa; also called MAb F25; biotin-MAb F25
no binding: all assays above

Source: patent US20080292632A1 (US Dept. of Health and Human Services, published 2008)
